The values that follow come from article PMC7205207, “Modeling and mitigation of high-concentration antibody viscosity through structure-based computer-aided protein design” (PLoS ONE, 2020).

Data set [1] has as its target T1, human PDGF-BB (platelet derived growth factor B homodimer) (human, UniProt P01127).
T1 construct: Platelet derived growth factor B, human, homodimer, bought from PeproTech; the printed catalogue number may stand for 100-14B; source: bought: PeproTech, Catalog 100-148
Nature of the data set: SPR; Biacore T200, full kinetics; antibody captured by anti-human IgG on a CM5 chip; human PDGF-BB at 20, 10, 5, 2.5 and 1.25 nM, 50 s injection; HBS-EP+ N; 25 C; 1:1 Langmuir fit. The following applies: both partners purified. On the technique in general: SPR reads the build-up and loss of mass on a sensor chip optically.

In data set [2] the target is T1, human PDGF-BB (platelet derived growth …). Nature of the data set: SPR; Biacore T200, off-rate screen; antibody captured (~70 to 100 RU) by anti-human IgG amine-coupled to a CM5 chip; human PDGF-BB injected at a single 2.5 nM for 170 s, dissociation 300 s; HBS-EP+ N (10 mM HEPES, 500 mM NaCl, 3 mM EDTA, 0.05% Tween20, pH 7.4); 25 C. The following applies: both partners purified.

Data set [3] can be described thus: AC-SINS; self-association assay, as in Avery et al. [35]; score = smoothed max absorbance of the antibody sample minus that of the average blank (PBS); scores >=11 considered high. The following applies: other: AC-SINS.

T1 sequence (P01127 82-190): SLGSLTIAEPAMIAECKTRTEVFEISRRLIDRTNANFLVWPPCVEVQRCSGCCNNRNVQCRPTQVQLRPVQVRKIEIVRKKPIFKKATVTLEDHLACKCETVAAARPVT

B1: R1-016 (antibody, V domains shown)
VH: EVQLLQSGGGLVKPGGSLRLSCAASGFTFSSYAMSWVRQAPGKGLEWVSYISDDGSLKYYADSVKGRFTISRDNSKNTLYLQMNSLRAEDTAVYYCARHPYWYGGQLDLWGQGTLVTVSS
VL: SYELTQPPSVSVSPGQTASITCSGDSLGSYFVHWYQQKPGQSPVLVIYDDSKRPSGIPERFSGSNSGNTATLTISGTQAMDEADYYCSAFTHNSDVFGGGTKLTVL
notes: only the variable regions are written; source: HEK293, transient, purified from conditioned medium (protein A, TMAE, HIC)
The Kd is the constant that tells how readily two partners part at equilibrium. Higher therefore signals lower affinity. Broadly, the koff is the rate constant with which the complex falls apart. The low end stands for slow dissociation, the high end for fast dissociation. The term kon denotes a measure of how fast the partners come together. Lower therefore signals slow association. Turning to B1, in data set [1], the affinity, expressed as Kd, was 74.3 ± 13.7 pM; the koff amounted to 0.000357 s⁻¹; the kon was 4.88e+06 M⁻¹ s⁻¹. This molecule came in with a koff in data set [2] of 0.000289 s⁻¹. This molecule also yielded an AC-SINS Score in data set [3] of 24.

B2: R2-019 (antibody, V domains shown)
VH: EVQLLQSGGGLVKPGGSLRLSCAASGFTFSSYAMSWVRQAPGKGLEWVSYISDDGSLKYYADSVKGRFTISRDNSKNTLYLQMNSLRAEDTAVYYCARHPYWYGGQLDLWGQGTLVTVSS
VL: SYVLTQPPSVSVAPGKTARITCSGDSLGSYFVHWYQQKPGQSPVLVIYLDSKRPSGIPERFSGSNSGNTATLTISGTQAMDEADYYCSAFTHNSDVFGGGTKLTVL
notes: as the VH of m20 (R2-001_HC); as the VL of m20 (R2-001_LC) with D50L (Kabat); only the variable regions are written; source: HEK293, transient, purified from conditioned medium (protein A, TMAE, HIC)
Turning to B2, the off-rate (koff) in data set [2] worked out at 0.000673 s⁻¹.

B3: R2-017 (antibody, V domains shown)
VH: EVQLLQSGGGLVKPGGSLRLSCAASGFTFSSYAMSWVRQAPGKGLEWVSYISDDGSLKYYADSVKGRFTISRDNSKNTLYLQMNSLRAEDTAVYYCARHPYWYGGQLYLWGQGTLVTVSS
VL: SYVLTQPPSVSVAPGKTARITCSGDSLGSYFVHWYQQKPGQSPVLVIYDDSKRPSGIPERFSGSNSGNTATLTISGTQAMDEADYYCSAFTHNSDVFGGGTKLTVL
notes: as the VH of m20 (R2-001_HC) with D101Y; as the VL of m20 (R2-001_LC); only the variable regions are written; source: HEK293, transient, purified from conditioned medium (protein A, TMAE, HIC)
B3: in data set [2], the off-rate (koff) came to 0.000673 s⁻¹.

B4: R2-016 (antibody, V domains shown)
VH: EVQLLQSGGGLVKPGGSLRLSCAASGFTFSSYAMSWVRQAPGKGLEWVSYISDDGSLKYYADSVKGRFTISRDNSKNTLYLQMNSLRAEDTAVYYCARHPYWYGGQLNLWGQGTLVTVSS
VL: SYVLTQPPSVSVAPGKTARITCSGDSLGSYFVHWYQQKPGQSPVLVIYDDSKRPSGIPERFSGSNSGNTATLTISGTQAMDEADYYCSAFTHNSDVFGGGTKLTVL
notes: as the VH of m20 (R2-001_HC) with D101N; as the VL of m20 (R2-001_LC); only the variable regions are written; source: HEK293, transient, purified from conditioned medium (protein A, TMAE, HIC)
On to B4, for which the koff in data set [2] stood at 0.000266 s⁻¹.

B5: R2-013 (antibody, V domains shown)
VH: EVQLLQSGGGLVKPGGSLRLSCAASGFTFSSYAMSWVRQAPGKGLEWVSYISNDGSLKYYADSVKGRFTISRDNSKNTLYLQMNSLRAEDTAVYYCARHPYWYGGQLDLWGQGTLVTVSS
VL: SYVLTQPPSVSVAPGKTARITCSGDSLGSYFVHWYQQKPGQSPVLVIYDDSKRPSGIPERFSGSNSGNTATLTISGTQAMDEADYYCSAFTHNSDVFGGGTKLTVL
notes: as the VH of m20 (R2-001_HC) with D52aN; as the VL of m20 (R2-001_LC); only the variable regions are written; source: HEK293, transient, purified from conditioned medium (protein A, TMAE, HIC)
On to B5, for which, in data set [2], the koff was found to be 0.000344 s⁻¹.

B6: R2-014 (antibody, V domains shown)
VH: EVQLLQSGGGLVKPGGSLRLSCAASGFTFSSYAMSWVRQAPGKGLEWVSYISDQGSLKYYADSVKGRFTISRDNSKNTLYLQMNSLRAEDTAVYYCARHPYWYGGQLDLWGQGTLVTVSS
VL: SYVLTQPPSVSVAPGKTARITCSGDSLGSYFVHWYQQKPGQSPVLVIYDDSKRPSGIPERFSGSNSGNTATLTISGTQAMDEADYYCSAFTHNSDVFGGGTKLTVL
notes: as the VH of m20 (R2-001_HC) with D53Q; as the VL of m20 (R2-001_LC); only the variable regions are written; source: HEK293, transient, purified from conditioned medium (protein A, TMAE, HIC)
Molecule B6 had an off-rate (koff) in data set [2] of 0.000396 s⁻¹.

B7: R2-011 (antibody, V domains shown)
VH: EVQLLQSGGGLVKPGGSLRLSCAASGFTFSSYAMSWVRQAPGKGLEWVSYISDDGSLKYYADSVKGRFTISRDNSKNTLYLQMNSLRAEDTAVYYCARHPYWYGGKLDLWGQGTLVTVSS
VL: SYVLTQPPSVSVAPGKTARITCSGDSLGSYFVHWYQQKPGQSPVLVIYDDSKRPSGIPERFSGSNSGNTATLTISGTQAMDEADYYCSAFTHNSDVFGGGTKLTVL
notes: as the VH of m20 (R2-001_HC) with Q100bK; as the VL of m20 (R2-001_LC); only the variable regions are written; source: HEK293, transient, purified from conditioned medium (protein A, TMAE, HIC)
In turn, B7 displayed a koff in data set [2] of 0.000414 s⁻¹. This koff and that of the molecule before are within 1.5-fold of each other.

B8: R2-012 (antibody, V domains shown)
VH: EVQLLQSGGGLVKPGGSLRLSCAASGFTFSSYAMSWVRQAPGKGLEWVSYISKDGSLKYYADSVKGRFTISRDNSKNTLYLQMNSLRAEDTAVYYCARHPYWYGGQLDLWGQGTLVTVSS
VL: SYVLTQPPSVSVAPGKTARITCSGDSLGSYFVHWYQQKPGQSPVLVIYDDSKRPSGIPERFSGSNSGNTATLTISGTQAMDEADYYCSAFTHNSDVFGGGTKLTVL
notes: as the VH of m20 (R2-001_HC) with D52aK; as the VL of m20 (R2-001_LC); only the variable regions are written; source: HEK293, transient, purified from conditioned medium (protein A, TMAE, HIC)
B8 gave a koff in data set [2] of 0.000347 s⁻¹.

B9: R2-007 (antibody, V domains shown)
VH: EVQLLQSGGGLVKPGGSLRLSCAASGFTFSSYAMSWVRQAPGKGLEWVSYISDDGSLKYYADSVKGRFTISRDNSKNTLYLQMNSLRAEDTAVYYCARHPYWYGGQLDLWGQGTLVTVSS
VL: SYVLTQPPSVSVAPGKTARITCSGDSLGSYFVHWYQQKPGQSPVLVIYDDSKRPSGIPERFSGKNSGNTATLTISGTQAMDEADYYCSAFTHNSDVFGGGTKLTVL
notes: as the VH of m20 (R2-001_HC); as the VL of m20 (R2-001_LC) with S65K (Kabat); only the variable regions are written; source: HEK293, transient, purified from conditioned medium (protein A, TMAE, HIC)
B9: the dissociation rate constant (koff) in data set [2] is 0.000401 s⁻¹.
